Results on one protein are retold here after publication PMC5392032 (Science Advances, 2017).

The series concerns the molecule itself. Kind of series: SEC-MALS. A general note: Size exclusion chromatography separates by hydrodynamic size, large species first.

B1: Vps4^E233Q (ATP hydrolysis-deficient mutant of Saccharomyces cerevisiae vacuolar protein sorting-associated protein 4) (enzyme)
chain: KKSPSAGSGSNGGNKKISQEEGEDNGGEDNKKLRGALSSAILSEKPNVKWEDVAGLEGAKEALKEAVILPVKFPHLFKGNRKPTSGILLYGPPGTGKSYLAKAVATEANSTFFSVSSSDLVSKWMGESEKLVKQLFAMARENKPSIIFIDQVDALTGTRGEGESEASRRIKTELLVQMNGVGNDSQGVLVLGATNIPWQLDSAIRRRFERRIYIPLPDLAARTTMFEINVGDTPCVLTKEDYRTLGAMTEGYSGSDIAVVVKDALMQPIRKIQSATHFKDVSTEDDETRKLTPCSPGDDGAIEMSWTDIEADELKEPDLTIKDFLKAIKSTRPTVNEDDLLKQEQFTRDFGQEGN
Broadly, the stoichiometry N is the number of molecules, sites or subunits per partner or assembly. Take B1: the “stoichiometry N” value came out at 6.
